Results: US20260098089A1 (KYMAB, published 2026)
Values belong to the binder of their own block, whether it stands above or below them.

Assays:
[1] = molecular target: T1, Human CD7 on cells (CEM and other T-ALL cells, peripheral NK and T cells) (human, UniProt P09564 26-238); assay: cell-based or functional assay
T1 sequence: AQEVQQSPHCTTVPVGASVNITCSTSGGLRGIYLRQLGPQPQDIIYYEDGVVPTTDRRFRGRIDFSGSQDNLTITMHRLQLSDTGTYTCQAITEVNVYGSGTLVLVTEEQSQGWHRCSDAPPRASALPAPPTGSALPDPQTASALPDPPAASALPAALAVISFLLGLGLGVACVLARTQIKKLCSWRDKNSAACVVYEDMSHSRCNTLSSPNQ

[2] = molecular target: T2, Human CD7 protein (soluble) (human, UniProt P09564 26-180); assay: SPR, captured mAb, global fit 1:1 model
T2 construct: also called hCD7; human antigen
T2 sequence: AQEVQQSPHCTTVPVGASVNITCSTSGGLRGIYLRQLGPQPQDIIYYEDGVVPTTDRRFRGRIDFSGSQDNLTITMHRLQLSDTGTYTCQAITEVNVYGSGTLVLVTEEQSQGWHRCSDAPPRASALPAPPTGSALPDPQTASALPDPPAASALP

[3] = molecular target: T3, Cynomolgus monkey (Macaca fascicularis) CD7 protein (soluble) (cynomolgus monkey (Macaca fascicularis)); assay: SPR, captured mAb, global fit 1:1 model
T3 construct: also called Cynomolgus CD7; cynomolgus antigen
T3 chain: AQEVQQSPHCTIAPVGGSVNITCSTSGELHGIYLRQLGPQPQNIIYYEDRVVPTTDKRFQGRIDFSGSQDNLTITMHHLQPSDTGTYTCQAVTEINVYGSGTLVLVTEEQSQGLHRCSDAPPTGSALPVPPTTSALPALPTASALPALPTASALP

[4] = molecular target: T2, Human CD7 protein (soluble); assay: Affinity to soluble CD7 (biophysical summary; SPR)
[5] = molecular target: T3, Cynomolgus monkey (Macaca fascicularis) …; assay: Affinity to soluble CD7 (biophysical summary; SPR)
[6] = molecular target: T1, Human CD7 on cells (CEM and other T-ALL …); assay: cell-based or functional assay; remark: listed apart in the source
[7] = molecular target: T3, Cynomolgus monkey (Macaca fascicularis) …; assay: SPR, mAb captured, single concentration of cynomolgus CD7 protein as analyte

B5: 1734F05 E345R (antibody, V domains shown)
VH: EVQLVESGGGLVQPGGSLRLSCAASGFTFSRYAMSWVRQAPGKGLEWVSSISASGATTFYADPVKGRFTISRDNSKKTLYLQMNSLRAEDTAVYYCAKDQDFDILTGYLNWFDPWGQGTLVTVSS
VL: EIVLTQSPATLSLSPGERVILSCRVSQSVSSYLAWYQQKPGQAPRLLIYDTSNRATGIPARFSGSGSGTDFTLTISSLEPEDFAVYYCQQRRNWPLTFGGGTKVEIK
EC50, CDC assay on CEM cells [1]: 1.16 nM
Maximum killing, CDC assay on CEM cells [1]: 100%

B6: 1734F05 (antibody, V domains shown)
VH: EVQLVESGGGLVQPGGSLRLSCAASGFTFSRYAMSWVRQAPGKGLEWVSSISASGATTFYADPVKGRFTISRDNSKKTLYLQMNSLRAEDTAVYYCAKDQDFDILTGYLNWFDPWGQGTLVTVSS
VL: EIVLTQSPATLSLSPGERVILSCRVSQSVSSYLAWYQQKPGQAPRLLIYDTSNRATGIPARFSGSGSGTDFTLTISSLEPEDFAVYYCQQRRNWPLTFGGGTKVEIK
Kd [2]: 0.98 nM
koff [2]: 0.000356 s⁻¹
kon [2]: 369000 M⁻¹ s⁻¹
Kd [3]: 3.9 nM
koff [3]: 0.000642 s⁻¹
kon [3]: 165000 M⁻¹ s⁻¹

B7: 1730C02 E345R (antibody, human IgG1, V domains shown)
VH: EVQLVESGGGLVQLGGSLRLSCAASGLTFNNYAMSWVRQAPGKGLEWVSTISGSGGSTYYADSAKGRFTISRDNSKNTLYLQMNSLRAEDTAVYYCAKGGLLYFGEFHFDYWGQGTLVTVSS
VL: DIQMTQSPSSLSASVGDRVTIICRASQGISNYLAWFQQKPGKAPKSLIYAASSLQSGVPSKFSGSGSGTDFTLTISSLQPEDFATYYCQHYNSYPLTFGGGTKVEIK
EC50, CDC assay on CEM cells [1]: 0.00037 nM
Maximum killing, CDC assay on CEM cells [1]: 93.2%

More lines, main results first:

EC50, CDC assay on CEM cells [1]: 0.12 nM
B1: 1741G09 E345R (antibody, V domains shown)
VH: EVQLVESGGGLVKPGGSLRLSCAASGFSFSVAWMSWVRQAPGKGLEWVGRIKRKTDGGTTDYAAPVKGRFIISRDDSIKALYLQMNSLKTEDTAVYYCTTDPLLRYSDWLSHSLMGDVWGQGTTVTVSS
VL: DIQMTQSPSSLSASVGDRVAITCRTSQNINNYLNWYQQKPGKAPKPLIYAASSLQSGVPSRFSGSGSGTDFTLTISTLHPEDFATYYCQQTYSIPLTFGGGTKVEIK
Maximum killing, CDC assay on CEM cells [1]: 99.5%

Kd [2]: 4.74 nM
koff [2]: 0.00192 s⁻¹
kon [2]: 416000 M⁻¹ s⁻¹
Kd [3]: 0.145 nM
kon [3]: 424000 M⁻¹ s⁻¹
B2: 1741G09 (antibody, V domains shown)
VH: EVQLVESGGGLVKPGGSLRLSCAASGFSFSVAWMSWVRQAPGKGLEWVGRIKRKTDGGTTDYAAPVKGRFIISRDDSIKALYLQMNSLKTEDTAVYYCTTDPLLRYSDWLSHSLMGDVWGQGTTVTVSS
VL: DIQMTQSPSSLSASVGDRVAITCRTSQNINNYLNWYQQKPGKAPKPLIYAASSLQSGVPSRFSGSGSGTDFTLTISTLHPEDFATYYCQQTYSIPLTFGGGTKVEIK
notes: also called 1741G9

Kd [4]: 4.75 nM
Kd [5]: 0.15 nM
CDC EC50; PDATLLAd2R, PDATALL12, PDTALL11 (intermediate to low CD7 expression) [6]: < 400 pM
CDC EC50; PDTALL13, PDTALL18 (much low CD7 expression) [6]: < 600 pM
CDC EC50; PDTALL46 and PDTALLAd2R [6]: ~350 pM
CDC assay on isolated peripheral NK cells, EC50 [6]: ~300 pM
B3: 1741G09 HuIgG1 E430G C-term Lysine clipped, Phe variant of light chain (antibody, V domains shown)
VH: EVQLVESGGGLVKPGGSLRLSCAASGFSFSVAWMSWVRQAPGKGLEWVGRIKRKTDGGTTDYAAPVKGRFIISRDDSIKALYLQMNSLKTEDTAVYYCTTDPLLRYSDWLSHSLMGDVWGQGTTVTVSS
VL: DIQMTQSPSSLSASVGDRVAITCRTSQNINNYLNWYQQKPGKAPKPLIYAASSLQSGVPSRFSGSGSGTDFTLTISTLHPEDFATYYCQQTYSIPLTFGGGTKVEIKR
notes: also called 1741G09 E430G; G09 E430G

EC50, CDC assay on CEM cells [1]: 0.12 nM
binding result [7]: no binding
B4: 1741E04 E345R (antibody, human IgG1, V domains shown)
VH: EVQLVESGGGLVKPGGSPRLSCAAYGVTFSNAWMSWVRQAPGKGLEWVGRIKSKTDGGTTDYAAPVKGRFTISRDDSKNTLYLQMNSLKTEDTAVYYCTIEAVAGHFDYWGQGTLVTVSS
VL: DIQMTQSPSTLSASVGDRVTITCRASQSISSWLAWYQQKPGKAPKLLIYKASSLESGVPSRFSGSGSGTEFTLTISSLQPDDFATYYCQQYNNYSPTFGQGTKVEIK
Maximum killing, CDC assay on CEM cells [1]: 99.8%
